Measurements published in patent publication US20250262210A1 (TRUSTEES OF COLUMBIA UNIVERSITY IN THE CITY OF NEW YORK, published 2025).

What was measured:
[1] = target: T1, NCAPG2 (human, UniProt Q86XI2 1-1143, limits assumed); test: IP/MS, LZTR1 wild type-FLAG, U87
T1 sequence (looked up): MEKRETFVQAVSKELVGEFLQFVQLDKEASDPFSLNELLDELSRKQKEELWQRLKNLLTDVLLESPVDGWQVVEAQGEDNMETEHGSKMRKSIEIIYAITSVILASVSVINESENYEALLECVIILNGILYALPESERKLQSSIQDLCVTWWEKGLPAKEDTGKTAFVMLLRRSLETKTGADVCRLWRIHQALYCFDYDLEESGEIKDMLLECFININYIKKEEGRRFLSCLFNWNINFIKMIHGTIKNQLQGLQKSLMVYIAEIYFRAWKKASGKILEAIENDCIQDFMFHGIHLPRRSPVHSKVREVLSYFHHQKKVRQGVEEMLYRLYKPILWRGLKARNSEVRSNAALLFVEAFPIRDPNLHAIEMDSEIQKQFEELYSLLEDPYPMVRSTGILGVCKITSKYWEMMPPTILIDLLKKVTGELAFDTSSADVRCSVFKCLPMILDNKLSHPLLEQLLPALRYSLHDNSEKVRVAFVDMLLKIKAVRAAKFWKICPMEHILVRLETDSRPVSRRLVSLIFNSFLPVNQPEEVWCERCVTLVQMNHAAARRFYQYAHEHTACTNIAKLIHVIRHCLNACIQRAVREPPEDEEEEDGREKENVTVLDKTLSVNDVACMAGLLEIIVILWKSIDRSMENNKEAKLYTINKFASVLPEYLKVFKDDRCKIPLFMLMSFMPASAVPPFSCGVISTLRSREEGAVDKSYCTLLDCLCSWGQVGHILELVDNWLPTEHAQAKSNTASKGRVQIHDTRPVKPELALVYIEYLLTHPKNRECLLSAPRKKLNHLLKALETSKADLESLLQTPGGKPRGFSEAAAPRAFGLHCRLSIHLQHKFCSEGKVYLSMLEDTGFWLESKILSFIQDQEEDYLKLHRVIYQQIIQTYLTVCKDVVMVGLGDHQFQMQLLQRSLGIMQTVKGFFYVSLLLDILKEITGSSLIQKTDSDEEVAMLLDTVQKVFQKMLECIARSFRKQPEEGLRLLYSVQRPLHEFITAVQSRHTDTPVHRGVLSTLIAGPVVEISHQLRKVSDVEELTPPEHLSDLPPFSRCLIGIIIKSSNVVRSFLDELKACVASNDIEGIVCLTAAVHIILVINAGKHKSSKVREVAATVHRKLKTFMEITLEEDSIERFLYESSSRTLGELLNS
Method in brief: (§1)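 Gel slices were reduced with 5 mM DTT, alkylated with 11 mM IAA and digested overnight at 37° C. with trypsin. Peptides were analysed on an Orbitrap Fusion Tribrid by LC-MS/MS.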

[2] = target: T2, PARP10 (human, UniProt Q53GL7 1-1025); test: IP/MS, LZTR1 wild type-FLAG, U87
T2 sequence (looked up): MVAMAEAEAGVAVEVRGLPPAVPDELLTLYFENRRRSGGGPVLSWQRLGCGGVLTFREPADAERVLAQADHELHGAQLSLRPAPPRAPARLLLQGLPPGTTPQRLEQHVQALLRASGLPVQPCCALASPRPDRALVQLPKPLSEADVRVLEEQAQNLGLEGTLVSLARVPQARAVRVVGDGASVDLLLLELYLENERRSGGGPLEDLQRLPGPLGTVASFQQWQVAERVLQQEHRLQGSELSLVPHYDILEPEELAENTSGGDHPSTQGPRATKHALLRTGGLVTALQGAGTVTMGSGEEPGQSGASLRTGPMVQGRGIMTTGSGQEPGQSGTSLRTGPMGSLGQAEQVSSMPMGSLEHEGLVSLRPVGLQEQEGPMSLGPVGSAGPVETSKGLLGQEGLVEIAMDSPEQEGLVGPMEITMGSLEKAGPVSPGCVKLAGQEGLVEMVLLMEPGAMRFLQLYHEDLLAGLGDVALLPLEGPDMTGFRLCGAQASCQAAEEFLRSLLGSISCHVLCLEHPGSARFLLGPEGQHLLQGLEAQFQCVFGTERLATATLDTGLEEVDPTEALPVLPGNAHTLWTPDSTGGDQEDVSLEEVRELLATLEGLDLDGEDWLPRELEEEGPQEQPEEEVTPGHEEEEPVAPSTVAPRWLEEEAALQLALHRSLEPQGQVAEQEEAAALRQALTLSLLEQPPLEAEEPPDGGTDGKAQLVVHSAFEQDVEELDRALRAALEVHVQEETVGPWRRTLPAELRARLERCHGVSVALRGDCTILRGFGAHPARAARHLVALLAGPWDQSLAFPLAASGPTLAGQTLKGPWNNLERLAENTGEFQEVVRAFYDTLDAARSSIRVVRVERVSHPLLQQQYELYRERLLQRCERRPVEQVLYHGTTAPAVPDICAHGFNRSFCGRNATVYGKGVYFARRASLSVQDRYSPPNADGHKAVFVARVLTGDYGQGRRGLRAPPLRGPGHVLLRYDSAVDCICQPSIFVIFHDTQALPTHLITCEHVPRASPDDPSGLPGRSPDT
Method in brief: as §1

B1: LZTR1-FLAG (other, human, UniProt Q8N653 1-840, looked up)
chain: MAGPGSTGGQIGAAALAGGARSKVAPSVDFDHSCSDSVEYLTLNFGPFETVHRWRRLPPCDEFVGARRSKHTVVAYKDAIYVFGGDNGKTMLNDLLRFDVKDCSWCRAFTTGTPPAPRYHHSAVVYGSSMFVFGGYTGDIYSNSNLKNKNDLFEYKFATGQWTEWKIEGRLPVARSAHGATVYSDKLWIFAGYDGNARLNDMWTIGLQDRELTCWEEVAQSGEIPPSCCNFPVAVCRDKMFVFSGQSGAKITNNLFQFEFKDKTWTRIPTEHLLRGSPPPPQRRYGHTMVAFDRHLYVFGGAADNTLPNELHCYDVDFQTWEVVQPSSDSEVGGAEVPERACASEEVPTLTYEERVGFKKSRDVFGLDFGTTSAKQPTQPASELPSGRLFHAAAVISDAMYIFGGTVDNNIRSGEMYRFQFSCYPKCTLHEDYGRLWESRQFCDVEFVLGEKEECVQGHVAIVTARSRWLRRKITQARERLAQKLEQEAAPVPREAPGVAAGGARPPLLHVAIREAEARPFEVLMQFLYTDKIKYPRKGHVEDVLLIMDVYKLALSFQLCRLEQLCRQYIEASVDLQNVLVVCESAARLQLSQLKEHCLNFVVKESHFNQVIMMKEFERLSSPLIVEIVRRKQQPPPRTPLDQPVDIGTSLIQDMKAYLEGAGAEFCDITLLLDGHPRPAHKAILAARSSYFEAMFRSFMPEDGQVNISIGEMVPSRQAFESMLRYIYYGEVNMPPEDSLYLFAAPYYYGFYNNRLQAYCKQNLEMNVTVQNVLQILEAADKTQALDMKRHCLHIIVHQFTKVSKLPTLRSLSQQLLLDIIDSLASHISDKQCAELGADI
notes: Expressed in HEK 293T, HeLa or U87 cells; used as cell lysate; also called LZTR1 wild type-FLAG; LZTR1 WT; not shown: FLAG tag at the C-terminus
B1: binds [1]; binds [2].
